Measured values taken from paper PMC5821868, “Human Semaphorin-4A drives Th2 responses by binding to receptor ILT-4” (Nature Communications, 2018).

Biological target: T1, recombinant SEMA4A-Fc (Sino Bio. Inc) (human, UniProt Q9H3S1 33-683)
T1 construct: Semaphorin-4A (SEMA4A), human; Used only in the SPR experiment, coated on the CM5 chip; Probably the extracellular domain (surmise); no catalogue number is printed; also called hSEMA4A; source: bought: Sino Bio; Inc
T1 sequence (looked up): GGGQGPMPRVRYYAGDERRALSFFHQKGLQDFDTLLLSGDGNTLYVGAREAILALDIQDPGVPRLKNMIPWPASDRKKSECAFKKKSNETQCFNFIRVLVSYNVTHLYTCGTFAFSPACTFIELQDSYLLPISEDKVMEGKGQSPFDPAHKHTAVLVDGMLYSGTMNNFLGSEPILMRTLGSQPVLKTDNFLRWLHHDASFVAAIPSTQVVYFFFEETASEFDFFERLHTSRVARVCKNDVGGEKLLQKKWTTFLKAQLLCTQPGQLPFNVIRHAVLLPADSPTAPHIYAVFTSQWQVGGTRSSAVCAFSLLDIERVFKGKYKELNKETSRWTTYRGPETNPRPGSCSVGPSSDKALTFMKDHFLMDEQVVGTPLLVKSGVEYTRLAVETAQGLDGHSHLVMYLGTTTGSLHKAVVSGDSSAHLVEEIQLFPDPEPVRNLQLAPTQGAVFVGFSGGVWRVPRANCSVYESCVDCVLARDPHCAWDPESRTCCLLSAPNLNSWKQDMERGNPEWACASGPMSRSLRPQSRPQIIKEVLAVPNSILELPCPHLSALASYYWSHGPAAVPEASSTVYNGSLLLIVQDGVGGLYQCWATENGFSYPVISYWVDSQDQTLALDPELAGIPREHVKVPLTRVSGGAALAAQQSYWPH
Experiment: SPR; SEMA4A-Fc (Sino Bio. Inc, 25 ug/ml) coated on a series S CM5 chip; ILT-4-Fc flowed at 10 to 0.625 uM in twofold dilutions; 25 °C; BIAcore T100
Settings: both partners purified

B1: recombinant ILT-4-Fc fusion protein (R&D Systems) (Fc fusion, human, UniProt Q8N423 22-460, looked up)
chain: QTGTIPKPTLWAEPDSVITQGSPVTLSCQGSLEAQEYRLYREKKSASWITRIRPELVKNGQFHIPSITWEHTGRYGCQYYSRARWSELSDPLVLVMTGAYPKPTLSAQPSPVVTSGGRVTLQCESQVAFGGFILCKEGEDEHPQCLNSQPHARGSSRAIFSVGPVSPNRRWSHRCYGYDLNSPYVWSSPSDLLELLVPGVSKKPSLSVQPGPVMAPGESLTLQCVSDVGYDRFVLYKEGERDLRQLPGRQPQAGLSQANFTLGPVSRSYGGQYRCYGAHNLSSECSAPSDPLDILITGQIRGTPFISVQPGPTVASGENVTLLCQSWRQFHTFLLTKAGAADAPLRLRSIHEYPKYQAEFPMSPVTSAHAGTYRCYGSLNSDPYLLSHPSEPLELVVSGPSMGSSPPPTGPISTPGPEDQPLTPTGSDPQSGLGRHLGV
notes: Immunoglobulin-like transcript 4 (ILT-4, LILRB2), human; APC-labelled with the Zenon labeling kit for flow cytometry; Probably the extracellular domain of ILT-4 (surmise); no catalogue number is printed; also called APC-ILT-4-Fc; hILT-4; source: bought: R&D Systems
Question: For B1, which Kd is on record?
Answer: 3.8 µM
